Reference: the supplement of paper PMC9112550, “Optimization of the antimicrobial peptide Bac7 by deep mutational scanning” (BMC Biology, 2022)

System: Escherichia coli TOP10
Assay: shrunken log2 fold change of peptide-encoding DNA abundance (4.5 h post-induction vs induction); higher = less antimicrobial activity (less host growth inhibition)
Conditions: time post-induction: 4.5 h; library: site-saturation at positions 5, 18, 19, 20
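Note: peptides expressed intracellularly from a pBAD plasmid library in pooled LB shake-flask culture, induced with 0.3% L-arabinose, DNA abundance read by NGS, three biological replicates, DESeq2 with apeglm shrinkage.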

Row | Sequence | shrunken log2 fold change
1 | RRIRIRPPRLPRPRPRPTNCPRP | -0.649
2 | RRIRIRPPRLPRPRPRPTPEPRP | 0.232
3 | RRIRIRPPRLPRPRPRPTPIPRP | 0.153
4 | RRIRIRPPRLPRPRPRPTPMPRP | -0.102
5 | RRIRIRPPRLPRPRPRPTQAPRP | -0.00254
6 | RRIRIRPPRLPRPRPRPTQCPRP | -0.65
7 | RRIRIRPPRLPRPRPRPTQFPRP | 0.000325
8 | RRIRIRPPRLPRPRPRPTRCPRP | 0.33
9 | RRIRIRPPRLPRPRPRPTRFPRP | 0.04
10 | RRIRIRPPRLPRPRPRPTRQPRP | -0.00609
11 | RRIRIRPPRLPRPRPRPTRRPRP | 0.298
12 | RRIRIRPPRLPRPRPRPTSGPRP | -0.00782
13 | RRIRIRPPRLPRPRPRPTTGPRP | -0.228
14 | RRIRIRPPRLPRPRPRPTVEPRP | -0.0817
15 | RRIRIRPPRLPRPRPRPTVHPRP | 0.0548
16 | RRIRIRPPRLPRPRPRPTVSPRP | -0.0336
17 | RRIRIRPPRLPRPRPRPTWCPRP | 0.0363
18 | RRIRIRPPRLPRPRPRPTWSPRP | 0.047
19 | RRIRIRPPRLPRPRPRPVARPRP | 0.223
20 | RRIRIRPPRLPRPRPRPVCCPRP | -0.0749
21 | RRIRIRPPRLPRPRPRPVCDPRP | -0.372
22 | RRIRIRPPRLPRPRPRPVCKPRP | -0.21
23 | RRIRIRPPRLPRPRPRPVDCPRP | 0.0257
24 | RRIRIRPPRLPRPRPRPVDKPRP | 0.0266
25 | RRIRIRPPRLPRPRPRPVEWPRP | 0.0101

Row | Sequence | shrunken log2 fold change
26 | RRIRIRPPRLPRPRPRPVFEPRP | 0.0673
27 | RRIRIRPPRLPRPRPRPVGIPRP | 0.16
28 | RRIRIRPPRLPRPRPRPVGLPRP | -0.0289
29 | RRIRIRPPRLPRPRPRPVHDPRP | -0.0869
30 | RRIRIRPPRLPRPRPRPVHQPRP | -0.398
31 | RRIRIRPPRLPRPRPRPVIMPRP | -0.334
32 | RRIRIRPPRLPRPRPRPVMCPRP | 0.062
33 | RRIRIRPPRLPRPRPRPVMDPRP | -0.184
34 | RRIRIRPPRLPRPRPRPVQMPRP | -0.675
35 | RRIRIRPPRLPRPRPRPVRLPRP | 0.499
36 | RRIRIRPPRLPRPRPRPVSYPRP | -0.599
37 | RRIRIRPPRLPRPRPRPVTKPRP | -0.359
38 | RRIRIRPPRLPRPRPRPVVLPRP | -0.21
39 | RRIRIRPPRLPRPRPRPVVTPRP | -0.408
40 | RRIRIRPPRLPRPRPRPWAEPRP | -0.167
41 | RRIRIRPPRLPRPRPRPWCDPRP | -0.769
42 | RRIRIRPPRLPRPRPRPWGKPRP | -0.814
43 | RRIRIRPPRLPRPRPRPWGNPRP | -0.803
44 | RRIRIRPPRLPRPRPRPWGTPRP | -0.859
45 | RRIRIRPPRLPRPRPRPWHAPRP | -0.0572
46 | RRIRIRPPRLPRPRPRPWHCPRP | -0.0926
47 | RRIRIRPPRLPRPRPRPWIPPRP | -0.562
48 | RRIRIRPPRLPRPRPRPWKEPRP | -0.12
49 | RRIRIRPPRLPRPRPRPWLFPRP | 0.0545
50 | RRIRIRPPRLPRPRPRPWLHPRP | -0.496

Row | Sequence | shrunken log2 fold change
51 | RRIRIRPPRLPRPRPRPWLSPRP | -0.238
52 | RRIRIRPPRLPRPRPRPWMTPRP | -0.53
53 | RRIRIRPPRLPRPRPRPWNSPRP | -0.592
54 | RRIRIRPPRLPRPRPRPWPPPRP | 0.0965
55 | RRIRIRPPRLPRPRPRPWRIPRP | -0.409
56 | RRIRIRPPRLPRPRPRPWRQPRP | 0.0165
57 | RRIRIRPPRLPRPRPRPWRYPRP | -0.0701
58 | RRIRIRPPRLPRPRPRPWSRPRP | -0.187
59 | RRIRIRPPRLPRPRPRPWSTPRP | -0.358
60 | RRIRIRPPRLPRPRPRPWSVPRP | -0.541
61 | RRIRIRPPRLPRPRPRPWTHPRP | -0.0959
62 | RRIRIRPPRLPRPRPRPWVFPRP | -0.397
63 | RRIRIRPPRLPRPRPRPYCHPRP | -0.743
64 | RRIRIRPPRLPRPRPRPYDDPRP | -0.0134
65 | RRIRIRPPRLPRPRPRPYDTPRP | -0.0277
66 | RRIRIRPPRLPRPRPRPYEAPRP | -0.18
67 | RRIRIRPPRLPRPRPRPYFAPRP | -0.694
68 | RRIRIRPPRLPRPRPRPYFSPRP | -0.382
69 | RRIRIRPPRLPRPRPRPYGYPRP | -0.0764
70 | RRIRIRPPRLPRPRPRPYHGPRP | -0.0135
71 | RRIRIRPPRLPRPRPRPYKGPRP | -0.018
72 | RRIRIRPPRLPRPRPRPYKRPRP | -0.0487
73 | RRIRIRPPRLPRPRPRPYPGPRP | -0.0674
74 | RRIRIRPPRLPRPRPRPYPPPRP | -0.818
75 | RRIRIRPPRLPRPRPRPYQAPRP | -0.342

Row | Sequence | shrunken log2 fold change
76 | RRIRIRPPRLPRPRPRPYQNPRP | -1.1
77 | RRIRIRPPRLPRPRPRPYSWPRP | -0.264
78 | RRIRIRPPRLPRPRPRPYWDPRP | -0.143
79 | RRIRIRPPRLPRPRPRPYWIPRP | -0.568
80 | RRIRIRPPRLPRPRPRPYWPPRP | -0.28
81 | RRIRIRPPRLPRPRPRPYYLPRP | -0.423
82 | RRIRKRPPRLPRPRPRPAACPRP | 0.987
83 | RRIRKRPPRLPRPRPRPAADPRP | 0.941
84 | RRIRKRPPRLPRPRPRPAAHPRP | 0.408
85 | RRIRKRPPRLPRPRPRPACDPRP | 0.861
86 | RRIRKRPPRLPRPRPRPACGPRP | 0.845
87 | RRIRKRPPRLPRPRPRPADTPRP | 1.03
88 | RRIRKRPPRLPRPRPRPAEGPRP | 0.305
89 | RRIRKRPPRLPRPRPRPAEQPRP | 0.452
90 | RRIRKRPPRLPRPRPRPAEVPRP | 0.171
91 | RRIRKRPPRLPRPRPRPAEYPRP | 0.345
92 | RRIRKRPPRLPRPRPRPAFDPRP | 0.451
93 | RRIRKRPPRLPRPRPRPAFGPRP | 0.564
94 | RRIRKRPPRLPRPRPRPAGEPRP | 0.0321
95 | RRIRKRPPRLPRPRPRPAGSPRP | 0.0961
96 | RRIRKRPPRLPRPRPRPAHKPRP | 0.0404
97 | RRIRKRPPRLPRPRPRPAHTPRP | 0.471
98 | RRIRKRPPRLPRPRPRPALNPRP | 0.589
99 | RRIRKRPPRLPRPRPRPALQPRP | 0.493
100 | RRIRKRPPRLPRPRPRPALSPRP | 0.253

Row | Sequence | shrunken log2 fold change
101 | RRIRKRPPRLPRPRPRPAMQPRP | 0.115
102 | RRIRKRPPRLPRPRPRPANIPRP | 0.214
103 | RRIRKRPPRLPRPRPRPANPPRP | 0.071
104 | RRIRKRPPRLPRPRPRPAPRPRP | 1.26
105 | RRIRKRPPRLPRPRPRPARGPRP | 0.766
106 | RRIRKRPPRLPRPRPRPARNPRP | 0.00491
107 | RRIRKRPPRLPRPRPRPARQPRP | 0.356
108 | RRIRKRPPRLPRPRPRPASEPRP | 0.879
109 | RRIRKRPPRLPRPRPRPASKPRP | -0.25
110 | RRIRKRPPRLPRPRPRPATHPRP | 0.426
111 | RRIRKRPPRLPRPRPRPAVQPRP | 0.195
112 | RRIRKRPPRLPRPRPRPAWGPRP | 0.694
113 | RRIRKRPPRLPRPRPRPAWTPRP | 0.261
114 | RRIRKRPPRLPRPRPRPAYTPRP | -0.0132
115 | RRIRKRPPRLPRPRPRPCAVPRP | 2.99
116 | RRIRKRPPRLPRPRPRPCEFPRP | 0.252
117 | RRIRKRPPRLPRPRPRPCEHPRP | 0.015
118 | RRIRKRPPRLPRPRPRPCEKPRP | 0.492
119 | RRIRKRPPRLPRPRPRPCELPRP | -0.00602
120 | RRIRKRPPRLPRPRPRPCFGPRP | 0.194
121 | RRIRKRPPRLPRPRPRPCGQPRP | 0.0682
122 | RRIRKRPPRLPRPRPRPCGRPRP | 0.0548
123 | RRIRKRPPRLPRPRPRPCGSPRP | -0.0192
124 | RRIRKRPPRLPRPRPRPCGVPRP | 0.143
125 | RRIRKRPPRLPRPRPRPCGWPRP | 0.179

Row | Sequence | shrunken log2 fold change
126 | RRIRKRPPRLPRPRPRPCILPRP | -0.283
127 | RRIRKRPPRLPRPRPRPCKMPRP | 0.093
128 | RRIRKRPPRLPRPRPRPCLPPRP | 0.0253
129 | RRIRKRPPRLPRPRPRPCMEPRP | 0.0223
130 | RRIRKRPPRLPRPRPRPCMTPRP | 0.0372
131 | RRIRKRPPRLPRPRPRPCNEPRP | -0.00256
132 | RRIRKRPPRLPRPRPRPCNRPRP | 0.0247
133 | RRIRKRPPRLPRPRPRPCQRPRP | -0.00088
134 | RRIRKRPPRLPRPRPRPCRDPRP | -0.136
135 | RRIRKRPPRLPRPRPRPCRFPRP | 0.0338
136 | RRIRKRPPRLPRPRPRPCRYPRP | -0.00884
137 | RRIRKRPPRLPRPRPRPCWEPRP | 0.0666
138 | RRIRKRPPRLPRPRPRPCWGPRP | 0.0634
139 | RRIRKRPPRLPRPRPRPCWIPRP | -0.0557
140 | RRIRKRPPRLPRPRPRPCYIPRP | -0.0235
141 | RRIRKRPPRLPRPRPRPDAMPRP | 0.618
142 | RRIRKRPPRLPRPRPRPDAYPRP | 1.82
143 | RRIRKRPPRLPRPRPRPDCEPRP | 1.96
144 | RRIRKRPPRLPRPRPRPDDCPRP | 0.149
145 | RRIRKRPPRLPRPRPRPDDVPRP | 2.03
146 | RRIRKRPPRLPRPRPRPDFKPRP | -0.0323
147 | RRIRKRPPRLPRPRPRPDHHPRP | -0.37
148 | RRIRKRPPRLPRPRPRPDITPRP | 2.24
149 | RRIRKRPPRLPRPRPRPDKCPRP | -0.142
150 | RRIRKRPPRLPRPRPRPDKLPRP | 0.367
